Reference: patent US20250195607A1 (BIOLINERX, published 2025)
Bridges are numbered along the chain shown (N, C = ends). [ ]: non-standard residue; d: D form. The star is where a group is joined. 2Nal = N[C@@H](Cc1ccc2ccccc2c1)C(=O)O; Benzoyl(4-F) = O=C(c1ccc(F)cc1)*; Cit = NC(=O)NCCC[C@H](N)C(=O)O

Biological target: CXCR4 chemokine receptor (mouse, UniProt P70658 1-359)
Assay: cell-based or functional assay

Sequence of CXCR4 chemokine receptor (P70658 whole entry): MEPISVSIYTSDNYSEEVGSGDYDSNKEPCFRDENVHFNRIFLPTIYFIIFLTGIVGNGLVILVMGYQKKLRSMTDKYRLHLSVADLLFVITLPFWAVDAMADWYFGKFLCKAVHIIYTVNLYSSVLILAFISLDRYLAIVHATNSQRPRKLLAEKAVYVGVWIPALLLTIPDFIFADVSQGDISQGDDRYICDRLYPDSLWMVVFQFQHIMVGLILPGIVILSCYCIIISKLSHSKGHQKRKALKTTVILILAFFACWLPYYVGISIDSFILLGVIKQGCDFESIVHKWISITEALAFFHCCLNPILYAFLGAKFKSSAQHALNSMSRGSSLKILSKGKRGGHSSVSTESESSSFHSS

{Benzoyl(4-F)}-RR[2Nal]CY[Cit]K[dK]PYR[Cit]CR-NH2 (disulfide 4-13 (inferred))
Fold increase in neutrophil number in peripheral blood (mice, 5 mg/kg s.c., 2 hours after injection, flow cytometry); BL-8040 composition of Example 1: 9.9 fold | Fold increase in neutrophil number in peripheral blood (mice, 5 mg/kg s.c., 2 hours after injection, flow cytometry); BL-8040 composition of Reference Example 1: 5.6 fold
